What was measured:
Assay in all cases: cell-based or functional assay
[1] = target: Env of HIV-1 pseudovirus REJO4541.67 (HIV-1)
[2] = target: Env of HIV-1 pseudovirus Ce704809221_1B3 (HIV-1)
[3] = target: Env of HIV-1 pseudovirus 1056_10_TA11_1826 (HIV-1)
[4] = target: Env of HIV-1 pseudovirus 1394C9G1(Rev-) (HIV-1)
[5] = target: Env of HIV-1 pseudovirus Ce1086_B2 (HIV-1)
[6] = target: Env of HIV-1 pseudovirus 263-8 (HIV-1)
[7] = target: Env of HIV-1 pseudovirus Ce1172_H1 (HIV-1)
[8] = target: Env of HIV-1 pseudovirus HIV-0013095-2.11 (HIV-1)
[9] = target: Env of HIV-1 pseudovirus MS208.A1 (HIV-1)
[10] = target: Env of HIV-1 pseudovirus 7030102001E5(Rev-) (HIV-1)
[11] = target: Env of HIV-1 pseudovirus THRO4156.18 (HIV-1)
[12] = target: Env of HIV-1 pseudovirus WEAU_d15_410_787 (HIV-1)
[13] = target: MuLV envelope (negative control pseudovirus)

## 10E8 (antibody)
[1]
  IC50: 0.203 µg/mL
  IC80: 1.69 µg/mL
[2]
  IC50: 0.058 µg/mL
  IC80: 0.319 µg/mL
[3]
  IC50: 0.134 µg/mL
  IC80: 1.03 µg/mL
[4]
  IC50: 0.963 µg/mL
  IC80: 5.33 µg/mL
[5]
  IC50: 1.16 µg/mL
  IC80: 6.93 µg/mL
[6]
  IC50: 0.196 µg/mL
  IC80: 1.73 µg/mL
[7]
  IC50: 0.722 µg/mL
  IC80: 4.82 µg/mL
[8]
  IC50: 0.031 µg/mL
  IC80: 0.213 µg/mL
[9]
  IC50: 0.609 µg/mL
  IC80: 3.72 µg/mL
[10]
  IC50: 6.71 µg/mL
  IC80: > 10 µg/mL
[11]
  IC50: 0.156 µg/mL
  IC80: 0.884 µg/mL
[12]
  IC50: > 10 µg/mL
  IC80: > 10 µg/mL

## N49P9 (antibody)
[13]
  neutralization IC50: > 50 µg/mL
  neutralization IC80: > 50 µg/mL
  neutralization MPI: 13

## N49P19 (antibody)
[13]
  neutralization IC50: > 50 µg/mL
  neutralization IC80: > 50 µg/mL
  neutralization MPI: 0

## PG9 (antibody)
[1]
  IC50: 0.012 µg/mL
  IC80: 0.163 µg/mL
[2]
  IC50: 0.037 µg/mL
  IC80: 0.137 µg/mL
[3]
  IC50: 6.34 µg/mL
  IC80: 38.3 µg/mL
[4]
  IC50: 0.029 µg/mL
  IC80: 0.114 µg/mL
[5]
  IC50: > 50 µg/mL
  IC80: > 50 µg/mL
[6]
  IC50: 0.293 µg/mL
  IC80: 1.05 µg/mL
[7]
  IC50: 0.07 µg/mL
  IC80: 0.206 µg/mL
[8]
  IC50: 0.01 µg/mL
  IC80: 0.03 µg/mL
[9]
  IC50: 0.005 µg/mL
  IC80: 0.014 µg/mL
[10]
  IC50: > 50 µg/mL
  IC80: > 50 µg/mL
[11]
  IC50: 24.5 µg/mL
  IC80: > 50 µg/mL
[12]
  IC50: 4.08 µg/mL
  IC80: > 50 µg/mL

## PG16 (antibody)
[1]
  IC50: 0.039 µg/mL
  IC80: 13.4 µg/mL
[2]
  IC50: 0.021 µg/mL
  IC80: 0.116 µg/mL
[3]
  IC50: 0.315 µg/mL
  IC80: 1.95 µg/mL
[4]
  IC50: 0.008 µg/mL
  IC80: 0.056 µg/mL
[5]
  IC50: > 50 µg/mL
  IC80: > 50 µg/mL
[6]
  IC50: 0.347 µg/mL
  IC80: 4.97 µg/mL
[7]
  IC50: 0.007 µg/mL
  IC80: 0.037 µg/mL
[8]
  IC50: 0.002 µg/mL
  IC80: 0.006 µg/mL
[9]
  IC50: 0.002 µg/mL
  IC80: 0.004 µg/mL
[10]
  IC50: > 50 µg/mL
  IC80: > 50 µg/mL
[11]
  IC50: 6.83 µg/mL
  IC80: > 50 µg/mL
[12]
  IC50: 0.435 µg/mL
  IC80: > 50 µg/mL
